According to the Human Domainome abundance scans (Beltran et al. 2025):

B1: POU domain, class 2, transcription factor 1, residues 285 to 354; numbered along this chain, P14859 (parent)
chain: LEELEQFAKTFKQRRIKLGFTQGDVGLAMGKLYGNDFSQTTISRFEALNLSFKNMCKLKPLLEKWLNDAE

Variants of: B1
Test: abundance fitness (aPCA) (normalised: wild type 0, dead -1); higher = more abundant; growth selection in yeast, the domain comes from the species named
Conditions: Homo sapiens

Abundance fitness: each site, then its substitutions
K12: Y -0.157, R 0.015, V -0.05, T -0.012, S -0.044, P -0.085, W -0.364
G19: V -0.214, H -0.564, M -0.471, A -0.391, S -0.288, D -0.314
F20: V -0.024, W 0.004, D -0.706, C -0.016, Y 0.06, L -0.081, E -0.372, P -0.827, N -0.197, Q -0.038, R -0.092, A -0.035, S -0.197, K -0.073, T -0.253, H -0.045
Q13: P -0.202, M -0.024, I -0.121, N -0.049, T 0.023, W -0.188, F -0.054, K 0.042, H 0.015, A -0.02, L -0.005, C -0.235, R -0.061, S -0.005, V -0.014, Y 0.011, E -0.01
I16: D -0.2, A -0.039, E 0.073, M 0.004, F -0.131, V -0.017, R -0.169, W -0.269, L -0.007, C -0.325, P -1.07, S -0.018, K -0.021, T -0.03, N -0.105, G -0.207, Y -0.117
R15: A -0.835, E -0.971, P -1.09, Y -0.387, S -0.974, N -0.902, F -0.533, G -1.03, H -0.725, V -0.815, K -1.09, C -0.655, I -1.1, W -0.953, L -0.826, T -1.03
K17: Q -0.023, D 0.001, L -0.016, T -0.029, E 0.01, W -0.037, I -0.1, C -0.046, V -0.06, M -0.007, S -0.003, R -0.166, N 0.076, G -0.027, P -0.966, Y -0.07
L18: N -0.408, H -0.277, D -0.601, A -0.046, Y -0.041, E -0.326, T -0.386, G -0.312, I -0.261, M -0.067, V -0.192, R -0.143, C -0.1, W -0.237, P -0.955, S -0.094
R14: A -0.048, C -0.233, E 0.028, K 0.004, F -0.32, T -0.024, G -0.067, M -0.089, S -0.052, V -0.004, P -1.05, W -0.296, H -0.156, N -0.29, L -0.105, Y -0.384, Q -0.1
Q22: M -0.134, G -0.099, E -0.024, H -0.118, W -0.072, K 0.048, S -0.005, P 0.001, R -0.011, D -0.035, F -0.129, I -0.076, V 0, N -0.119, T -0.011, C 0.031, L -0.001, Y -0.029, A -0.014
T21: N -0.029, W -0.753, F -0.693, L -0.284, V -0.482, K -0.065, Q -0.131, I -0.598, R -0.198, A -0.158, P -0.423, G -0.113, E -0.191, D -0.191, H -0.191
G23: D 0.023, H 0.013, C -0.073, A 0.025, E 0.017
